Test [1] has as its target CV S-protein construct 6 trimer TP31001F (SARS-CoV-2, UniProt P0DTC2 14-1208). The test is described as follows: SPR.
The target is the same in test [2]. The test is described as follows: SPR. This is another data set of the same source.

Among the data in patent US20210355194A1 (TWIST BIOSCIENCE, published 2021) are Kd values, retold here.

Where two headings read alike, the source gives them in different places.

B1: variant 6-78 (Fc fusion)
VHH: EVQLVESGGGLVQPGGSLRLSCAASGRTYDAMGWFRQAPGKEREFVASVTSGGYTHYADSVKGRFTISADNSKNTAYLQMNSLKPEDTAVYYCAKFGRKIVGATELDYWGQGTLVTVSS
For the molecule B1, in test [1], binding was put at a Kd of 0.4 nM. That is a sub-nanomolar value.

B2: variant 5-63 (Fc fusion)
VHH: EVQLVESGGGLVQPGGSLRLSCAASGFSLDYYDMGWFRQAPGKEREFVAALGWSGGSTDYADSVKGRFTISADNSKNTAYLQMNSLKPEDTAVYYCAAGNGGRYGIVERWGQGTLVTVSS
In the case of B2, in test [1], the Kd was determined as 0.4 nM. In other words, the sub-nanomolar range.

B3: variant 6-82 (Fc fusion)
VHH: EVQLVESGGGLVQPGGSLRLSCAASGSSLDAYGMGWFRQAPGKEREFVAAISWGGGSIYYADSVKGRFTISADNSKNTAYLQMNSLKPEDTAVYYCARLSQGMVALDYWGQGTLVTVSS
In test [1], B3 displayed a dissociation constant (Kd) of 0.6 nM.

B4: variant 6-26 (Fc fusion)
VHH: EVQLVESGGGLVQPGGSLRLSCAASGDTFSTSWMGWFRQAPGKEREFVATINTGGGTNYADSVKGRFTISADNSKNTAYLQMNSLKPEDTAVYYCARVTTSFDYWGQGTLVTVSS
In the case of B4, binding in test [1] was characterised by a dissociation constant (Kd) of 0.07 nM.

B5: variant 6-30 (Fc fusion)
VHH: EVQLVESGGGLVQPGGSLRLSCAASGFAFGDSWMGWFRQAPGKEREFVATINWSGVTAYADSVKGRFTISADNSKNTAYLQMNSLKPEDTAVYYCARADGYFDYWGQGTLVTVSS
With B5, in test [1], the dissociation constant (Kd) amounted to 0.1 nM. This Kd and that of the molecule before are within 1.5-fold of each other.

B6: variant 6-77 (Fc fusion)
VHH: EVQLVESGGGLVQPGGSLRLSCAASGFTFDRSWMGWFRQAPGKEREFVAAVTEGGTTSYADSVKGRFTISADNSKNTAYLQMNSLKPEDTAVYYCARADYDFDYWGQGTLVTVSS
Turning to B6, binding in test [1] was characterised by a dissociation constant (Kd) of 3.5 nM.

B7: variant 6-102 (Fc fusion)
VHH: EVQLVESGGGLVQPGGSLRLSCAASGSSFSAYAMGWFRQAPGKEREFVSAIDSEGTTTYADSVKGRFTISADNSKNTAYLQMNSLKPEDTAVYYCAGDYNFWSGFDHWGQGTLVTVSS
B7: binding in test [2] was characterised by a dissociation constant (Kd) of 0.9 nM.

B8: variant 6-112 (Fc fusion)
VHH: EVQLVESGGGLVQPGGSLRLSCAASGGTFSAYHMGWFRQAPGKERELVTIIDNGGPTSYADSVKGRFTISADNSKNTAYLQMNSLKPEDTAVYYCTALLYYFDNSGYNFDPFDIWGQGTLVTGSS
In test [2], B8 displayed a Kd of 43.8 nM.

B9: variant 5-20 (Fc fusion)
VHH: EVQLVESGGGLVQPGGSLRLSCAASGRTIVPYTMGWFRQAPGKERELVAAISPSAFTEYADSVKGRFTISADNSKNTAYLQMNSLKPEDTAVYYCAARRWGYDWGQGTLVTVSS
On to B9, for which binding in test [1] was put at a Kd of 1.1 nM.

B10: variant 6-58 (Fc fusion)
VHH: EVQLVESGGGLVQPGGSLRLSCAASGRAVSTYAMGWFRQAPGKEREFVAAISGSENVTSYADSVKGRFTISADNSKNTAYLQMNSLKPEDTAVYYCLSVTGDTEDYGVFDTWGQGTLVTVSS
Turning to B10, in test [1], the Kd worked out at 1 nM.

B11: variant 6-42 (Fc fusion)
VHH: EVQLVESGGGLVQPGGSLRLSCAASGDTYGSYWMGWFRQAPGKEREFVAVITSGGSTNYADSVKGRFTISADNSKNTAYLQMNSLKPEDTAVYYCTHVQNSYYYAMDVWGQGTLVTVSS
Take B11: binding in test [1] was put at a Kd of 7.8 nM.

B12: variant 6-108 (Fc fusion)
VHH: EVQLVESGGGLVQPGGSLRLSCAASGGTFGSYGMGWFRQAPGKEREFVAAIRWSGGITYYADSVKGRFTISADNSKNTAYLQMNSLKPEDTAVYYCARERYWNPLPYYYYGMDVWGQGTLVTVSS
Molecule B12 returned a Kd in test [2] of 0.3 nM.

B13: variant 6-20 (Fc fusion)
VHH: EVQLVESGGGLVQPGGSLRLSCAASGSTLPYHAMGWFRQAPGKEREFVAAITWNGASTSYADSVKGRFTISADNSKNTAYLQMNSLKPEDTAVYYCARDRYYDTSASYFESETWGQGTLVTVSS
In the case of B13, binding in test [1] was characterised by a dissociation constant (Kd) of 0.3 nM.

B14: variant 6-44 (Fc fusion)
VHH: EVQLVESGGGLVQPGGSLRLSCAASGGTFGVYHMGWFRQAPGKEREFIGRITWTDGSTYYADSVKGRFTISADNSKNTAYLQMNSLKPEDTAVYYCFGLLEVYDMTFDYWGQGTLVTVSS
As to B14, binding in test [1] was characterised by a dissociation constant (Kd) of 0.9 nM.

B15: variant 6-46 (Fc fusion)
VHH: EVQLVESGGGLVQPGGSLRLSCAASGLTFSAMGWFRQAPGKEREFVALIRRDGSTIYADSVKGRFTISADNSKNTAYLQMNSLKPEDTAVYYCAALGILFGYDAFDIWGQGTLVTVSS
B15 displayed a Kd in test [1] of 1.9 nM. This Kd lies about 2.1-fold higher than the previous one.

B16: variant 6-103 (Fc fusion)
VHH: EVQLVESGGGLVQPGGSLRLSCAASGRTSSPIAMGWFRQAPGKEREPVAVRWSDDYTYYADSVKGRFTISADNSKNTAYLQMNSLKPEDTAVYYCAKKLGGYYAFDIWGQGTLVTVSS
In test [2], B16 displayed a Kd of 1 nM.

B17: variant 6-34 (Fc fusion)
VHH: EVQLVESGGGLVQPGGSLRLSCAASGSAFRSNAMGWFRQAPGKEREFVAHISWSSKSTYYADSVKGRFTISADNSKNTAYLQMNSLKPEDTAVYYCATYCSSTSCFDYWGQGTLVTVSS
As to B17, the Kd in test [1] came out at 0.7 nM.

B18: variant 6-45 (Fc fusion)
VHH: EVQLVESGGGLVQPGGSLRLSCAASGNMFSINAMGWFRQAPGKEREFVTLISWSSGRTSYADSVKGRFTISADNSKNTAYLQMNSLKPEDTAVYYCASLGYCSGGSCFDYWGQGTLVTVSS
In test [1], B18 had a Kd of 1.3 nM.

B19: variant 6-39 (Fc fusion)
VHH: EVQLVESGGGLVQPGGSLRLSCAASGFTFSPSWMGWFRQAPGKEREFVAAISWSGGSTAYADSVKGRFTISADNSKNTAYLQMNSLKPEDTAVYYCHGLGEGDPYGDYEGYFDLWGQGTLVTVSS
The molecule B19 showed a Kd in test [1] of 0.1 nM.

B20: variant 6-43 (Fc fusion)
VHH: EVQLVESGGGLVQPGGSLRLSCAASGRTFSSYAMMGWFRQAPGKEREFVASVNWDASQINYADSVKGRFTISADNSKNTAYLQMNSLKPEDTAVYYCTTLGAVYFDSSGYHDYFDYWGQGTLVTVSS
For the molecule B20, the dissociation constant (Kd) in test [1] was 0.7 nM.

B21: variant 6-60 (Fc fusion)
VHH: EVQLVESGGGLVQPGGSLRLSCAASGDTYGSYWMGWFRQAPGKEREFVATISQSGAATAYADSVKGRFTISADNSKNTAYLQMNSLKPEDTAVYYCAGLLRYSGTYYDAFDVWGQGTLVTVSS
As for B21, binding in test [1] was characterised by a dissociation constant (Kd) of 0.1 nM.

B22: variant 5-1 (Fc fusion)
VHH: EVQLVESGGGLVQPGGSLRLSCAASGGTFSSIGMGWFRQAPGKEREFVAAISWDGGATAYADSVKGRFTISADNSKNTAYLQMNSLKPEDTAVYYCAKEDVGKPFDWGQGTLVTVSS
The molecule B22 registered a Kd in test [1] of 0.4 nM.

B23: variant 6-106 (Fc fusion)
VHH: EVQLVESGGGLVQPGGSLRLSCAASGIPSTLRAMGWFRQAPGKEREFVAATSWSGGSKYYADSVKGRFTISADNSKNTAYLQMNSLKPEDTAVYYCATDLYYMDVWGQGTLVTVSS
In test [2], B23 displayed a Kd of 1070 nM. That is a single-digit micromolar value.

B24: variant 6-6 (Fc fusion)
VHH: EVQLVESGGGLVQPGGSLRLSCAASGTTLDYYAMGWFRQAPGKERELVAAISWSGGSTAYADSVKGRFTISADNSKNTAYLQMNSLKPEDTAVYYCAREDYYDSSGYSWGQGTLVTVSS
In test [1], B24 had a dissociation constant (Kd) of 67.7 nM.
